# Test results taken from patent US20240301070A1, “IMPROVING ANTIBODY TOLERABILITY ASSOCIATED WITH INTRAVENOUS ADMINISTRATION” (BIOINVENT INTERNATIONAL AB, priority 2020, published 2024).
# Entries after “also recorded” stand apart in the source; their conditions may differ.
# Columns and labels:
# [1] = molecular target: mouse CD32B (FcγRIIB) (mouse) (UniProt P08101); assay: receptor saturation at 10 ug/ml serum concentration of AT-130-2; separate experiments not shown
# peripheral B lymphocytes = assay: Peripheral B lymphocyte depletion in human subjects; assay type: in vivo; conditions: 100 mg BI-1206
# [2] = tested on: human subjects with non-hodgkins B-cell lymphoma; assay: IRR grading in clinical studies with BI-1206; assay type: in vivo
# Text: The IRR that may be prevented or mitigated as described herein and/or that may be predicted with the method described herein may be any IRR. The adverse event denoted “Infusion related reaction” in the CTCAE version 5.0 is used for disorders characterized by adverse reaction to the infusion of pharmacological or biological substances; belonging to the group of “Injury, poisoning and procedural complications”.
# [3] = tested on: human subjects with non-hodgkins B-cell lymphoma; assay: ALT/AST in clinical studies with BI-1206
# Text: (§1) Platelet counts, ALT concentrations and IRR grading were obtained from clinical sites where anayzed and reported according local standard procedures.
# [4] = tested on: human subjects with non-hodgkins B-cell lymphoma; assay: Platelet counts in clinical studies with BI-1206; assay type: in vivo
# Text: as §1
# [5] = tested on: human subjects with non-hodgkins B-cell lymphoma; assay: Cytokine analysis of plasma/serum of human subjects (MSD); assay type: in vivo
# Procedure: For cytokine concentrations, frozen plasma samples were thawed and diluted ×2 and ×8. Two parallel set of cytokines were analyzed, the proinflammatory assay with IL-6, IL-8, TNF-α, IFN-γ, IL-10, IL-2 and IL-4 (MesoScale Discovery (MSD) #K15049), and the chemokine assay with MIP-1β, IL-1β, IL-23, IL-12p 70, TARC and VEGF (MSD #K15067). The assays followed the manufacturer's protocol as outlined briefly: 50 μL of sample and calibration standard were added to the appropriate MSD plates and incubated. Following washing, 25 µL of SULFO-TAG detection antibody mixture were added to each well of the corresponding plate. The plates were analyzed on a QuickPlex SQ120 Reader instrument (MSD) and cytokine concentration was calculated using the MSD software (Discovery Workbench, 2013; version LSR-4-0-12).
# FcgRIIb = molecular target: T1, FcgRIIb (Homo sapiens, UniProt P31994); assay: FcgRIIb receptor occupancy on peripheral B cells (flow cytometry); assay type: in vivo; conditions: 100 mg BI-1206
# T1 construct: FcgRIIb receptor occupancy on peripheral B cells (A) and peripheral B cell levels (B) in human subjects; endogenous in cells; host or cells: peripheral CD19+ B cells in whole blood of human subjects (same method also used on hFcgRIIB transgenic mice)
# T1 sequence (P31994 43-310): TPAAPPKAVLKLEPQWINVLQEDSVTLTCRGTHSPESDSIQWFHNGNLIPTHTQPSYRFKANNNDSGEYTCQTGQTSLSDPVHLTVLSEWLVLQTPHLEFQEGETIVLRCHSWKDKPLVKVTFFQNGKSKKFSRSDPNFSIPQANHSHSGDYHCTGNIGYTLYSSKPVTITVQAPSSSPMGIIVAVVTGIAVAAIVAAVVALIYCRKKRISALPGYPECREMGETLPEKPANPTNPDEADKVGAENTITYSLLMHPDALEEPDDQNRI
# Procedure: The FcgRIIb receptor occupancy in humans and hFcgRIIb transgenic mice was analyzed using flow cytometry. Whole blood from was incubated with either 005-C05 antibody (targeting hFcgRIIb) or anti-hCD32-AF647 antibody. 005-C05 binds the same epitope as BI-1206 but with much lower affinity. In the analysis, the Geo Mean of respectively mAb (005-C05 and anti-human CD32) was acquired on the CD19+ cell population. Receptor occupancy (RO) was calculated using the following equations: RO (%)=((Total Receptors-Normalized Free Receptors)*100)/Total Receptors. All replicates of 005-C05 geo mean of CD19+ cells were then multiplied by the Normalization factor.
# wildtype C57/BL6 mice [6] = assay: Macroscopic IRR scoring (0-2) of mice after antibody injection; assay type: in vivo, mouse
# Procedure: Six to eight weeks-old (17-20 g) female C57/BL6 and Balb C mice were obtained from Taconic or Janvier. Mice were injected i.v with mouse anti-CD32B AT-130-2 IgG2a either as a bulk dose of 200 ug/mouse or as a split-dose with 8 ug/mouse followed by 200 ug/mouse. […]
# Mice were monitored post injection with regards to changes in behavior and macroscopic symptoms such as isolation, mobility, and fur condition. Macroscopic IRRs scoring system of 0-2 was set up based on the observations.
# These premedications were given i.p 1h prior to injection i.v of mouse anti-CD32B AT-130-2 IgG2a as a bulk dose of 200 ug/mouse. […]
# Mice were monitored post injection with regard to changes in behavior and macroscopic symptoms such as isolation, mobility, and fur condition. Macroscopic IRRs scoring system of 0-2 was set up based on the observations: […]
# wildtype C57/BL6 mice [7] = assay: Platelet count in fresh mouse blood (Vetscan); assay type: in vivo; conditions: 40 mg/kg, 1 hour only, 10 mg/kg AT-130-2 IgG2a i.v.
# Procedure: Blood samples were collected from vena saphena 20 min post injection of bulk dose of anti-CD32B for instant blood count analysis. For liver enzyme and cytokine analysis, the mice were bled from the aorta under isoflurane anesthesia just prior to sacrifice. Samples for liver enzymes and cytokines were collected 1h and respectively 3h after bulk dose.
# Platelet counts were analyzed in fresh blood using a Vetscan (Vetscan HM5 Abaxis, Triolab).
# Blood samples were collected from vena saphena for instant blood count analysis. For serum concentrations of AT130-2, liver enzyme and cytokine analysis, the mice were bled from the aorta under isoflurane anesthesia just prior to sacrifice.
# Blood samples were collected from vena saphena for instant blood count analysis.
# [8] = 70 mg BI-1206, subjects 501-001 and 503-002
# [9] = ≥50 mg BI-1206 (FIG. 6: 70-100 mg)
# Sequence of mouse CD32B (FcγRIIB) (mouse) (P08101 30-207 limits assumed): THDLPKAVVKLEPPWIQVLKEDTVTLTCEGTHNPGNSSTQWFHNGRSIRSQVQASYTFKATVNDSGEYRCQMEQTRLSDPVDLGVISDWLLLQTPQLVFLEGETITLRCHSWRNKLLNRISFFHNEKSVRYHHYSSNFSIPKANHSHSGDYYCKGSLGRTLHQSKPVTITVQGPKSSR
compound,measurement,setting,value
AT-130-2 IgG2a (anti-mouse CD32B IgG2a clone AT130-2) (antibody),receptor saturation,[1],100%
BI-1206: anti-FcγRIIB antibody with light chain SEQ ID No: 1 and heavy chain SEQ ID No: 2,peripheral B lymphocytes,peripheral B lymphocytes,transient depletion
same,time to recovery of peripheral B lymphocytes,peripheral B lymphocytes,approximately 7 days
same,IRR's without two-dose premedication,"[2]; 30 mg BI-1206, subject 201-003, 9 administrations",repeatedly experienced IRR's
same,grade of IRR's with two doses of dexamethasone,"[2]; 30 mg BI-1206, subject 201-003, 10th administration",1
same,IRRs after premedication with two doses of dexamethasone,"[2]; 70 mg BI-1206, subjects 501-001 and 503-002, 12 mg / 4 mg evening before and 20 mg 30 minutes prior",None of the subjects suffered any IRRs; also recorded: did not suffer IRRs
same,grade of IRRs,"[2]; 70 mg BI-1206 with rituximab, subjects 501-001 and 503-002, dexamethasone (20 mg) only 30 minutes prior to infusion",2-3
same,severity and frequency of IRRs after implementation of two-dose corticosteroid premedication,"[2]; 70-100 mg BI-1206, study 17-BI-1206-02",Significantly lower frequency and severity of IRRs; also recorded: statistically significant reduced severity and frequency of IRRs
same,infusion related reactions (IRRs) during BI-1206 infusions,"[2]; i.v., human subjects",frequently associated with IRRs; also recorded: Frequent
same,ALT/AST increase after premedication with two doses of dexamethasone,[3]; [8],no ALT/AST increase
same,subjects with significant ALT and AST increase,[3]; ≥70 mg BI-1206,3 out of 16
same,platelet decrease,"[4]; 30 mg BI-1206, subject 201-003",never been seen
same,platelet decrease after premedication with two doses of dexamethasone,[4]; [8],no/low platelet decrease
same,platelets,[4]; [9],The decrease is transient
same,seriousness of thrombocytopenia,[4]; [9],never serious or associated with bleeding; also recorded: not been serious nor associated with bleeding
same,time to resolution of most thrombocytopenia episodes,[4]; [9],within a week
same,subjects with transient cytokine release,"[5]; 70-100 mg BI-1206 (FIG. 6), serum/plasma available",7 of 8
same,association of cytokine release with clinical symptoms,[5]; ≥70 mg BI-1206,not been associated with clinical symptoms
same,cytokines included in the release,[5]; ≥70 mg BI-1206,"macrophage inflammatory protein (MIP)-1β, tumor necrosis factor (TNF)-α, interleukin (IL)-10, IL-8, IL-6, and IL-4"
same,time of peak cytokine release,[5]; ≥70 mg BI-1206,immediately after infusion
same,time to normalization of cytokines,[5]; ≥70 mg BI-1206,≤ 24 h
same,FcγRIIB receptor occupancy on peripheral B cells,FcgRIIb,~100%
same,duration of receptor saturation,FcgRIIb,up to 48 hours
CCCCCCCCCCCCCCCCCCNC(=O)OCC(COP(=O)([O-])OCC[n+]1ccsc1)OC (stereo not drawn) [anti-PAF],inhibition of IRRs by other pre-medications,wildtype C57/BL6 mice [6]; i.p. 1h prior to i.v. AT-130-2 IgG2a bulk dose 200 ug/mouse,"None of these pre-medications could inhibit IRRs; also recorded: none of the tested substances (anti-PAF, anti-IL-6, anti-histamine and a leukotrien-antagonist) could prevent the IRRs"
C[C@H]1C[C@H]2[C@@H]3CCC4=CC(=O)C=C[C@]4(C)[C@@]3(F)[C@@H](O)C[C@]2(C)[C@@]1(O)C(=O)CO [betamethasone],effect of single premedication on macroscopic symptoms (IRRs),"wildtype C57/BL6 mice [6]; 40 mg/kg, 1 hour only, 10 mg/kg AT-130-2 IgG2a i.v.",did not inhibited
same,grade of macroscopic symptoms after single premedication,"wildtype C57/BL6 mice [6]; 40 mg/kg, 24 hours only, 10 mg/kg AT-130-2 IgG2a i.v.",1
same,effect of single premedication on platelet decrease,wildtype C57/BL6 mice [7],did not inhibited
